Results: publication PMC3248148, “Hsp90 can Accommodate the Simultaneous Binding of the FKBP52 and HOP Proteins” (Oncotarget, 2011)

Key:
[1] = biological target: the molecule itself; assay: SEC; HiPrep Sephacryl S-200; each protein alone; 50mM Hepes, 150mM NaCl, 50mM KCl, 10mM MgCl2, 1mM DTT, pH 7.5; molecular weight interpolated from standards
human Hsp90α [2] = biological target: T1, human Hsp90α (human, UniProt P07900 1-732); assay: native gel or EMSA; 7.5% Native-PAGE, no detergents, reducing or denaturing agents in the gel buffers; mixtures incubated at 30°C for 60 minutes; with and without 5mM ATP, 20mM Na2MoO4; with and without 0.01% dodecyl-maltopyranoside; conditions: both partners purified
T1 construct: Hsp90α, human, expressed from pET28b-Hsp90α; Dimer by Sephacryl S-200 SEC; also called Hsp90 dimer; source: E. coli BL21 (DE3), purified (Ni2+ HisTrap, Q-Sepharose, Sephacryl S-200)

human Hsp90α [3] = biological target: T1, human Hsp90α; assay: co-IP; Hsp90α bait held on monoclonal Hsp90 (H90-10) antibody/Protein A-Sepharose beads; p23, FKBP52 and HOP added in the 2:1:2:2 molar ratios; 30°C, 60 minutes; without ATP, with 5mM ATP, 20mM Na2MoO4, and with ATP plus 0.01% dodecyl-maltopyranoside; SDS-PAGE; conditions: both partners purified

B1: human FKBP52 (52 kDa immunophilin FK506-binding protein) (natural protein, UniProt Q02790 1-459, looked up)
chain: MTAEEMKATESGAQSAPLPMEGVDISPKQDEGVLKVIKREGTGTEMPMIGDRVFVHYTGWLLDGTKFDSSLDRKDKFSFDLGKGEVIKAWDIAIATMKVGEVCHITCKPEYAYGSAGSPPKIPPNATLVFEVELFEFKGEDLTEEEDGGIIRRIQTRGEGYAKPNEGAIVEVALEGYYKDKLFDQRELRFEIGEGENLDLPYGLERAIQRMEKGEHSIVYLKPSYAFGSVGKEKFQIPPNAELKYELHLKSFEKAKESWEMNSEEKLEQSTIVKERGTVYFKEGKYKQALLQYKKIVSWLEYESSFSNEEAQKAQALRLASHLNLAMCHLKLQAFSAAIESCNKALELDSNNEKGLFRRGEAHLAVNDFELARADFQKVLQLYPNNKAAKTQLAVCQQRIRRQLAREKKLYANMFERLAEEENKAKAEASSGDHPTDTEMKEEQKSNTAGSQSQVETEA
notes: FKBP52, human, expressed from pET28b-FKBP52; Dimer in solution by SEC and DLS; The gene is printed as Fkbp4, of the mouse; source: E. coli BL21 (DE3), purified (Ni2+ HisTrap, Q-Sepharose, Sephacryl S-200)
stoichiometry N [1]: 2
stoichiometry N (human Hsp90α [2]): 0.5 FKBP52 per Hsp90 chain (1:2)

B2: human p23 co-chaperone (natural protein, UniProt Q15185 1-160, looked up)
chain: MQPASAKWYDRRDYVFIEFCVEDSKDVNVNFEKSKLTFSCLGGSDNFKHLNEIDLFHCIDPNDSKHKRTDRSILCCLRKGESGQSWPRLTKERAKLNWLSVDFNNWKDWEDDSDEDMSNFDRFSEMMNNMGGDEDVDLPEVDGADDDSQDSDDEKMPDLE
notes: p23 co-chaperone, human, untagged, expressed from pET23-p23; Eluted from Sephacryl S-200 as dimer and monomer; monomer by DLS; source: E. coli BL21 (DE3), purified (DEAE FF, Q-Sepharose, Sephacryl S-200)
binding result (human Hsp90α [3]): binds
